Assays:
Details in all cases: apparent, 10 μM FAD, 1 mM NADH, 500 nM HpaC, 20 mM KPi pH 7.0, 30 °C
O=C(O)/C=C/c1ccc(O)cc1 [1] = test: HPLC of product and substrate; Michaelis-Menten fit; type: biochemical, Escherichia coli
Source text: (§1) HPLC of product and substrate; Michaelis-Menten fit on EcHpaB

O=C(O)/C=C/c1ccc(O)cc1 [2] = test: purified protein; type: biochemical, Escherichia coli
Source text: as §1

O=C(O)/C=C/c1ccc(O)cc1 [3] = test: purified protein; type: biochemical, Escherichia coli; remark: listed apart in the source
O=c1ccc2ccc(O)cc2o1 = test: purified protein
[4] = substrate: O=C(O)/C=C/c1ccc(O)cc1; test: HPLC of product and substrate; Michaelis-Menten fit; type: biochemical, Escherichia coli; remark: listed apart in the source
purified protein [5] = substrate: Oc1ccc(/C=C/c2cc(O)cc(O)c2)cc1; test: purified protein
purified protein [6] = substrate: O=c1ccc2ccc(O)cc2o1; test: purified protein; remark: listed apart in the source
purified protein [7] = substrate: O=C1C[C@@H](c2ccc(O)cc2)Oc2cc(O)cc(O)c21; test: purified protein

## EcHpaB (Escherichia coli; A211D/E216M/F208A/G207M/G209M/G215A/M214G/N217V/Q212G/S210V/V213S)
O=C(O)/C=C/c1ccc(O)cc1 [1]
  Km: 235.3 ± 52.5 µM
  kcat: 0.375 ± 0.0217 s⁻¹
  kcat/Km: 1560 M⁻¹ s⁻¹

## EcHpaB (Escherichia coli; A211D/E216M/F208A/G207M/G209M/G215A/N217V/S210V)
O=C(O)/C=C/c1ccc(O)cc1 [2]
  Km: 210.8 ± 85.3 µM
  kcat: 0.512 ± 0.0617 s⁻¹
  kcat/Km: 2400 M⁻¹ s⁻¹

## EcHpaB (Escherichia coli; A211D/E216S/F208S/M214S/N217D/Q212L/V213G)
O=C(O)/C=C/c1ccc(O)cc1 [3]
  Km: 132.1 ± 29.1 µM
  kcat: 0.365 ± 0.0167 s⁻¹
  kcat/Km: 2800 M⁻¹ s⁻¹
O=c1ccc2ccc(O)cc2o1
  Km: 176.9 ± 35.9 µM
  kcat: 0.348 s⁻¹
  kcat/Km: 2000 M⁻¹ s⁻¹

## EcHpaB (Escherichia coli; E216M/G215A/N217V)
O=C(O)/C=C/c1ccc(O)cc1 [1]
  Km: 235.6 ± 40.2 µM
  kcat: 0.497 ± 0.0217 s⁻¹
  kcat/Km: 2100 M⁻¹ s⁻¹

## EcHpaB (Escherichia coli; A211D/F208A/G207M/G209M/S210V)
O=C(O)/C=C/c1ccc(O)cc1 [3]
  Km: 387.9 ± 32.7 µM
  kcat: 0.183 ± 0.00667 s⁻¹
  kcat/Km: 470 M⁻¹ s⁻¹

B1: EcHpaB (Escherichia coli) (protein)
chain: MKPEDFRASTQRPFTGEEYLKSLQDGREIYIYGERVKDVTTHPAFRNAAASVAQLYDALHKPEMQDSLCWNTDTGSGGYTHKFFRVAKSADDLRHERDAIAEWSRLSYGWMGRTPDYKAAFGCALGGTPGFYGQFEQNARNWYTRIQETGLYFNHAIVNPPIDRHLPTDKVKDVYIKLEKETDAGIIVSGAKVVATNSALTHYNMIGFGSAQVMGENPDFALMFVAPMDADGVKLISRASYEMVAGATGSPYDYPLSSRFDENDAILVMDNVLIPWENVLLYRDFDRCRRWTMEGGFARMYPLQACVRLAVKLDFITALLKKSLECTGTLEFRGVQADLGEVVAWRNTFWALSDSMCSEATPWVNGAYLPDHAALQTYRVLAPMAYAKIKNIIERNVTSGLIYLPSSARDLNNPQIDQYLAKYVRGSNGMDHVQRIKILKLMWDAIGSEFGGRHELYEINYSGSQDEIRLQCLRQAQSSGNMDKMMAMVDRCLSEYDQNGWTVPHLHNNDDINMLDKLLK
notes: (α2)2 tetramer; expressed in E. coli BW25113 (F') from pZE12-luc, purified; assayed with separate purified HpaC reductase
[4]
  Km: 137.6 ± 21.0 µM
  kcat: 0.387 ± 0.0117 s⁻¹
  kcat/Km: 2800 M⁻¹ s⁻¹
Purified protein [5]
  Km: 174.3 ± 17.9 µM
  kcat: 0.437 s⁻¹
  kcat/Km: 2500 M⁻¹ s⁻¹
Purified protein [6]
  Km: 217.0 ± 60.6 µM
  kcat: 0.418 s⁻¹
  kcat/Km: 1900 M⁻¹ s⁻¹
Purified protein [7]
  Km: 349.8 ± 77.6 µM
  kcat: 0.15 s⁻¹
  kcat/Km: 400 M⁻¹ s⁻¹
